According to PMC11177981 (2024):

B1: FLAG-GLUT4 (human full length) expressed in HEK293T cells [human] / retinoic acid inducible gene I (RIG-I), endogenous in HEK293T cells [human (endogenous in HEK293T)] (parent complex)
chain 1: MPSGFQQIGSEDGEPPQQRVTGTLVLAVFSAVLGSLQFGYNIGVINAPQKVIEQSYNETWLGRQGPEGPSSIPPGTLTTLWALSVAIFSVGGMISSFLIGIISQWLGRKRAMLVNNVLAVLGGSLMGLANAAASYEMLILGRFLIGAYSGLTSGLVPMYVGEIAPTHLRGALGTLNQLAIVIGILIAQVLGLESLLGTASLWPLLLGLTVLPALLQLVLLPFCPESPRYLYIIQNLEGPARKSLKRLTGWADVSGVLAELKDEKRKLERERPLSLLQLLGSRTHRQPLIIAVVLQLSQQLSGINAVFYYSTSIFETAGVGQPAYATIGAGVVNTVFTLVSVLLVERAGRRTLHLLGLAGMCGCAILMTVALLLLERVPAMSYVSIVAIFGFVAFFEIGPGPIPWFIVAELFSQGPRPAAMAVAGFSNWTSNFIIGMGFQYVAEAMGPYVFLLFAVLLLGFFIFTFLRVPETRGRTFDQISAAFHRTPSLLEQEVKPSTELEYLGPDEND
chain 2: MTTEQRRSLQAFQDYIRKTLDPTYILSYMAPWFREEEVQYIQAEKNNKGPMEAATLFLKFLLELQEEGWFRGFLDALDHAGYSGLYEAIESWDFKKIEKLEEYRLLLKRLQPEFKTRIIPTDIISDLSECLINQECEEILQICSTKGMMAGAEKLVECLLRSDKENWPKTLKLALEKERNKFSELWIVEKGIKDVETEDLEDKMETSDIQIFYQEDPECQNLSENSCPPSEVSDTNLYSPFKPRNYQLELALPAMKGKNTIICAPTGCGKTFVSLLICEHHLKKFPQGQKGKVVFFANQIPVYEQQKSVFSKYFERHGYRVTGISGATAENVPVEQIVENNDIIILTPQILVNNLKKGTIPSLSIFTLMIFDECHNTSKQHPYNMIMFNYLDQKLGGSSGPLPQVIGLTASVGVGDAKNTDEALDYICKLCASLDASVIATVKHNLEELEQVVYKPQKFFRKVESRISDKFKYIIAQLMRDTESLAKRICKDLENLSQIQNREFGTQKYEQWIVTVQKACMVFQMPDKDEESRICKALFLYTSHLRKYNDALIISEHARMKDALDYLKDFFSNVRAAGFDEIEQDLTQRFEEKLQELESVSRDPSNENPKLEDLCFILQEEYHLNPETITILFVKTRALVDALKNWIEGNPKLSFLKPGILTGRGKTNQNTGMTLPAQKCILDAFKASGDHNILIATSVADEGIDIAQCNLVILYEYVGNVIKMIQTRGRGRARGSKCFLLTSNAGVIEKEQINMYKEKMMNDSILRLQTWDEAVFREKILHIQTHEKFIRDSQEKPKPVPDKENKKLLCRKCKALACYTADVRVIEECHYTVLGDAFKECFVSRPHPKPKQFSSFEKRAKIFCARQNCSHDWGIHVKYKTFEIPVIKIESFVVEDIATGVQTLYSKWKDFHFEKIPFDPAEMSK

Variants of: B1
Experiment: co-IP (IP: FLAG) with immunoblot band densitometry; HEK293T cells; FLAG-GLUT4 plasmids, endogenous RIG-I; Vector, pcDNA3.1-FLAG; read off a plot

**Q.** With chain 1 MPSGFQQIGSEDGEPPQQRVTGTLVLAVFSAVLGSLQFGYNIGVINAPQKVIEQSYNETWLGRQGPEGPSSIPPGTLTTLWALSVAIFSVGGMISSFLIGIISQWLGRKRAMLVNNVLAVLGGSLMGLANAAASYEMLILGRFLIGAYSGLTSGLVPMYVGEIAPTHLAGALGTLNQLAIVIGILIAQVLGLESLLGTASLWPLLLGLTVLPALLQLVLLPFCPESPRYLYIIQNLEGPARKSLKRLTGWADVSGVLAELKDEKRKLERERPLSLLQLLGSRTHRQPLIIAVVLQLSQQLSGINAVFYYSTSIFETAGVGQPAYATIGAGVVNTVFTLVSVLLVERAGRRTLHLLGLAGMCGCAILMTVALLLLERVPAMSYVSIVAIFGFVAFFEIGPGPIPWFIVAELFSQGPRPAAMAVAGFSNWTSNFIIGMGFQYVAEAMGPYVFLLFAVLLLGFFIFTFLRVPETRGRTFDQISAAFHRTPSLLEQEVKPSTELEYLGPDEND [chain 1 R169A] as the variant, how does the response read?
**A.** ~1.1 band density ratio (RIG-I/GLUT4)
